Data as given in PMC5646864.

T1: Escherichia coli CsdE (Escherichia coli), P0AGF2
T1 chain: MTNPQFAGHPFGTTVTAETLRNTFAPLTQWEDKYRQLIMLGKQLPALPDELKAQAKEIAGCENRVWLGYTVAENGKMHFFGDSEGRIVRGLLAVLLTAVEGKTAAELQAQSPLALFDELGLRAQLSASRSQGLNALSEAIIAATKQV


Assays:
Cys61 = Cys61 (UniProt position 61, KEIAGCENRVW); conditions: not stated (reduced thiol implied; discussed for free CsdE); cited from earlier work
[1] = biological target: T1, Escherichia coli CsdE (Escherichia …); test: crystal structure; native CsdE at 40 mg/ml in 10 mM Tris-HCl pH 8, 2 mM 2-mercaptoethanol; crystallised in 0.1 M sodium citrate pH 6.5, 20% (w/v) PEG-MME 2000 at 297 K; two monomers in the asymmetric unit joined by a Cys61-Cys61 disulfide bridge; phased by Se-SAD on SeMet crystals; conditions: remark: other sources report otherwise

Row | stoichiometry N [1] | Molecule | pKa (Cys61)
1 |  | Sulfur acceptor protein CsdE (YgdK) (Escherichia coli) | 6.5
2 | 2 | Escherichia coli CsdE, P0AGF2 1-147 (natural protein) MTNPQFAGHPFGTTVTAETLRNTFAPLTQWEDKYRQLIMLGKQLPALPDELKAQAKEIAGCENRVWLGYTVAENGKMHFFGDSEGRIVRGLLAVLLTAVEGKTAAELQAQSPLALFDELGLRAQLSASRSQGLNALSEAIIAATKQV | 
